Measurements: the supplement of paper PMC10567573
± gives the standard deviation.

Test: protein stability index of a GFP-peptide fusion (GPS, HEK-293T) (PSI 1-6); higher = more stable
[1] = treatment: DMSO, c terminus: a fixed tail appended
[2] = treatment: MLN4924 1 uM, 8 h, c terminus: a fixed tail appended
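Further: 24-mer peptide tiles fused after GFP, lentivirally expressed, FACS-sorted into six equal bins by GFP/DsRed ratio, decoded by Illumina sequencing, PSI is the read-weighted mean bin number.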

| Sequence | protein stability index [1] | protein stability index [2] | protein stability index (treatment: DMSO, c terminus: native) | protein stability index (treatment: MLN4924 1 uM, 8 h, c terminus: native) |
| --- | --- | --- | --- | --- |
| LPTITSELSGAPRCHTVPCAGSTA [PXN] | 3.86 ± 0.34 | 3.83 ± 0.27 |  |  |
| TLSASSSAGGSRTPAMSSSSSSRV [TFE3] | 4.57 ± 0.46 | 4.96 ± 0.25 |  |  |
| QPKKPEDEPQETAYRTQVSSCCLH [PKD2L1] | 4.88 ± 0.27 | 4.96 ± 0.05 |  |  |
| SLGASPTVAGIVGSSYGILQLFSS [MFSD9] | 2.08 ± 0.35 | 2.17 ± 0.47 |  |  |
| IGKLLYLEDFFVMSDYRGFGIGSE [SAT1] | 2.85 ± 0.33 | 2.9 ± 0.81 |  |  |
| LILSREASWAKPHYEFNLSRMKFR [LCOR] | 2.27 ± 0.18 | 2.11 ± 0.28 |  |  |
| QEEAIAQFPYVEFTGRDSITCLTC [TMEM106C] | 2.5 ± 0.21 | 2.57 ± 0.24 |  |  |
| HFRGVSLNLTRKLAQQLCTALLFL [DYRK1B] | 2.04 ± 0.4 | 2.15 ± 0.23 |  |  |
| GTSALWRHLRSAHRRELESSGAGS [ZBED3] | 3.78 ± 0.57 | 4.1 ± 0.25 |  |  |
| PMAEYNMPQYILREFKVTDARDGQ [PTPRD] | 3.8 ± 0.24 | 3.75 ± 0.27 |  |  |
| TLSTIEFQREALENSHTNTEVLRN [CHMP4C] | 4.66 ± 0.14 | 4.92 ± 0.19 |  |  |
| LAQFPNTLLGNPKKRMRYFDPLRN [KCNA1] | 2.45 ± 0.12 | 2.48 ± 0.12 |  |  |
| KDWLEGTVRGATGIFPLSFVKILK [NCF4] | 2.49 ± 0.5 | 2.38 ± 0.52 |  |  |
| KSSTVGLVTLNDMKAKQEALVKER [FAM50A] | 4.69 ± 0.31 | 4.45 ± 0.39 |  |  |
| WIHCFEGVTAIIFCVALSDYDLVL [GNAI1] | 3.2 ± 0.53 | 3.22 ± 0.24 |  |  |
| YAADRNCMWSKKCSGVACLVKDNP [WASL] | 3.08 ± 0.95 | 2.49 ± 0.3 |  |  |
| QIKAIRGSNEYTEGPSVVKRPAPR [SPRY1] | 4.05 ± 0.09 | 4.47 ± 0.3 |  |  |
| STAPGLFLVSTHTGEVRTARALLE [PCDHGC5] | 2.5 ± 0.27 | 2.54 ± 0.31 |  |  |
| EGPKRELGVRRPGGAGKEGVRVNN [TCF25] | 4.7 ± 0.12 | 5.04 ± 0.16 |  |  |
| LNEDTIQDVVQAADLLLLTDLKTL [GAN] | 3.03 ± 0.31 | 3.16 ± 0.44 |  |  |
| LDKSTKLVETAIQSLDEPGGATFL [TRIM63] | 4.13 ± 0.29 | 4.17 ± 0.28 |  |  |
| EVLAQPQGALAPPNCESDSKTGV [DNAAF3] |  |  | 5.34 ± 0.27 | 5.3 ± 0.39 |
| MVVDFWTWEQTFQELIQEAKPRAT [RTP4] | 2.5 ± 0.49 | 2.2 ± 0.36 |  |  |

| Sequence | protein stability index [1] | protein stability index [2] | protein stability index (treatment: DMSO, c terminus: native) | protein stability index (treatment: MLN4924 1 uM, 8 h, c terminus: native) |
| --- | --- | --- | --- | --- |
| PLIIAARNGHAKVVRLLLEHYRVQ [FEM1B] | 2.36 ± 0.36 | 2.39 ± 0.2 |  |  |
| DGLPLHFFIQTVRPKDTVMCYRVR [MYORG] | 2.15 ± 0.43 | 2.24 ± 0.31 |  |  |
| LGNFKDDLLNVCMRHVEKMCKADL [TRIM29] | 2.36 ± 0.13 | 2.47 ± 0.19 |  |  |
| AHSSDVLENVFSSLTDDKYDVAMN [GOLPH3L] | 4.74 ± 0.21 | 4.7 ± 0.3 |  |  |
| STGYCWCVLVDTGRPIPGTSTRYE [SMOC2] | 2.64 ± 1.8 | 2.12 ± 0.32 |  |  |
| LQKDEYRPDKALSEGDLKNAIRVH [PSD2] | 4.56 ± 0.055 | 4.58 ± 0.16 |  |  |
| SEEYRAPRPQSEESWDEEDKRNYP [CHGB] | 5.47 ± 0.19 | 5.42 ± 0.3 |  |  |
| KRMSELCIDFNKNLNEDDTFLVFS | 2.08 ± 0.25 | 2.58 ± 0.11 |  |  |
| VDKDQPSILNSCEDPVPGMLFFLP [FBXO34] | 3.32 ± 0.39 | 3.02 ± 0.36 |  |  |
| MYHPRELYPSLGAGYRLGPAQPGA [TBX6] | 2.78 ± 0.25 | 2.71 ± 0.11 |  |  |
| EFNGLKKMNPKLKTLLAIGGWNFS [CHIT1] | 2.44 ± 0.57 | 2.32 ± 0.34 |  |  |
| VGGQDTGATWRTSGLLEELNAEAG [C18orf25] | 4.57 ± 0.2 | 4.59 ± 0.34 |  |  |
| EIPERRDSGVGASLTRSNRHRLRW [DLC1] | 4.17 ± 0.35 | 4.36 ± 0.32 |  |  |
| VKTKKNAPSATIHQGEEEGPLDIW [FBXO34] | 4.21 ± 0.2 | 4.4 ± 0.25 |  |  |
| ERLDELQDKSESLSDNATAFSNRS [VAMP4] | 5.44 ± 0.24 | 5.34 ± 0.088 |  |  |
| FQKSHNSLQRWEHLKKVASRYQNN [PRIM1] | 2.46 ± 0.42 | 2.9 ± 0.13 |  |  |
| FICKECGKAYGWCSELIRHRRVHA [ZNF232] | 3.38 ± 0.3 | 3.73 ± 0.33 |  |  |
| HNLIEQVSLGLGQPWHAVMDIESL [FBXO33] | 2.59 ± 0.52 | 2.48 ± 0.16 |  |  |
| EVLENVFRVNCYPGIDIREDLAQK [HESX1] | 2.46 ± 0.31 | 2.35 ± 0.66 |  |  |
| MLQIPQEKSQAYPRRRRPGCYAYR [MYORG] | 3.22 ± 0.43 | 3.23 ± 0.23 |  |  |
| KIVLCAVSHVFMLLFNVKSPTDIQ [RHOBTB3] | 3.16 ± 0.17 | 3.09 ± 0.22 |  |  |
| VSSSQDGKVIVWDSFTTNKEHAVT [GNB5] | 3.51 ± 0.23 | 3.67 ± 0.38 |  |  |
| HDFIEHILRKLPQQREKLSLIRKH [CCND2] | 2.3 ± 0.1 | 2.45 ± 0.25 |  |  |

| Sequence | protein stability index [1] | protein stability index [2] | protein stability index (treatment: DMSO, c terminus: native) | protein stability index (treatment: MLN4924 1 uM, 8 h, c terminus: native) |
| --- | --- | --- | --- | --- |
| IDAIYSVIDDAKQYVYIAVMDYLP [PLD5] | 3.55 ± 0.11 | 3.73 ± 0.42 |  |  |
| HSLDLNISEKLTLLPTLYEIHSKT [RNF180] | 2.34 ± 0.26 | 2.46 ± 0.42 |  |  |
| KESESEAKVDGETASDSESRAESA [CDS2] | 5.6 ± 0.17 | 5.34 ± 0.34 |  |  |
| RVAKKLQSGLVWTNCWLIRELNLP [ALDH8A1] | 2.5 ± 0.38 | 2.37 ± 0.54 |  |  |
| GKSPDTNYLFMGDYVDRGYYSVET [PPP2CA] | 2.73 ± 0.28 | 2.87 ± 0.17 |  |  |
| EQPVPPTPATPEDPAPLWGPPPAQ [EMID1] | 4.92 ± 0.38 | 5.32 ± 0.22 |  |  |
| GPLAQPLTLQVLVAGNPQDTRLRY [ADAMTS4] | 2.49 ± 0.22 | 2.86 ± 0.1 |  |  |
| QGSRGLTDQAIFYAVTPLPWCPHL [HDAC6] | 2.64 ± 0.66 | 2.41 ± 0.46 |  |  |
| TLQGLYLVYHPVQLSTPHAVGVLL [DHCR7] | 3.18 ± 0.49 | 2.97 ± 0.5 |  |  |
| EDLQSIIYKLEEHEEFFPAFQAFT [CEP70] | 2.38 ± 0.18 | 2.17 ± 0.31 |  |  |
| SLALDIDRDAEDQNRYLDGMVRAH [BET1L] | 4.24 ± 0.17 | 4.39 ± 0.31 |  |  |
| CITEDGRTVAVGDIVWGKIHGFPW [PWWP2B] | 2.49 ± 0.5 | 2.28 ± 0.45 |  |  |
| CEHECVNADGSYLCQCHEGFALNP [MATN2] | 4.77 ± 0.15 | 4.8 ± 0.4 |  |  |
| KCASDIFQASNPYLPTRGGTTMAS [TRIM55] | 2.89 ± 0.22 | 2.86 ± 0.16 |  |  |
| DERRQLQHLKSKALRERWLLEGTP [PALM] | 3.54 ± 0.44 | 3.71 ± 0.23 |  |  |
| RSSALWSEMLDITMKESLTTREIR [NET1] | 3.13 ± 0.23 | 3.23 ± 0.23 |  |  |
| DSFVVQYEDTNGQPQALLVDGDQS [TNXB] | 5 ± 0.27 | 4.83 ± 0.39 |  |  |
| TAFCTHVFPETAFIAVTSYQNHKI [TBX5] | 2.31 ± 0.41 | 2.27 ± 0.42 |  |  |
| TPSLLRFALASLLQSAPDVKGRVR [ZSWIM9] | 2.5 ± 0.16 | 2.53 ± 0.34 |  |  |
| ALEAAVHVQKLSQECLKQLAIKKQ [TRIM14] | 3.91 ± 0.16 | 3.54 ± 0.52 |  |  |
| WVHKHFTEDIQTRQYRSIEVLIGA [SRPK2] | 2.37 ± 0.18 | 2.27 ± 0.41 |  |  |
| IESAHRSRIKVLETSYQQREERLR [FBF1] | 3.85 ± 0.15 | 3.82 ± 0.33 |  |  |
| DQWTPIAAMLRGQSDVGVAVFENK [KLHL13] | 3.53 ± 0.2 | 3.42 ± 0.2 |  |  |

| Sequence | protein stability index [1] | protein stability index [2] | protein stability index (treatment: DMSO, c terminus: native) | protein stability index (treatment: MLN4924 1 uM, 8 h, c terminus: native) |
| --- | --- | --- | --- | --- |
| SHSRERPYKCVQPDCGKAFVSRYK [PLAGL1] | 3.34 ± 0.23 | 3.37 ± 0.17 |  |  |
| KSKASFLLLASGLVITDFFGHLIN [PTGFR] | 3.11 ± 0.27 | 2.88 ± 0.57 |  |  |
| HCRENAHDKIRPISSIGQVQSYME [SPACA9] | 3.44 ± 0.22 | 3.29 ± 0.26 |  |  |
| KPTEPSVPVQPLLPESLARSLLPS [FBF1] | 4.33 ± 0.11 | 4.43 ± 0.26 |  |  |
| HNISHMSMDIARGLMVTCGTDRIV [WDFY1] | 2.26 ± 0.16 | 2.27 ± 0.15 |  |  |
| VLKLLLLLLLFGVAGGLVACRVTE [LRRC59] | 2.77 ± 0.73 | 2.68 ± 0.81 |  |  |
| SYDCTVKLWDPVDGSVVRDFEHRP [WDR88] | 3.44 ± 0.22 | 3.62 ± 0.3 |  |  |
| AVQQVQRLPFLSSSNLSLDVLRGN [POMP] | 2.87 ± 0.24 | 2.98 ± 0.35 |  |  |
| PLPTDPMLGLALGGLVVSAASLAG [TSPAN10] | 2.96 ± 0.63 | 2.65 ± 0.63 |  |  |
| CQYEALVENNRRDVEAWFNTQTEE [KRT36] | 2.86 ± 0.39 | 2.83 ± 0.35 |  |  |
| DYEKMFGTKCHGCDFKIDAGDRFL [PDLIM7] | 2.92 ± 0.31 | 2.96 ± 0.66 |  |  |
| KKCVKKFVEYCDVNNDKSISVQEL [SMOC2] | 3.57 ± 0.21 | 3.68 ± 0.49 |  |  |
| PILKRKLPGSDVSGRLMGSPPVPG [FBXO28] | 3.9 ± 0.3 | 4 ± 0.1 |  |  |
| EQLERINDALSCEYECRRRMLMKR [FAM98B] | 3.09 ± 0.37 | 3.14 ± 0.33 |  |  |
| AAQFTDFLIPMLEMVPEKRASAGE [SRPK2] | 3.6 ± 0.29 | 3.97 ± 0.29 |  |  |
| AVYFAEADDPTSGFSSIPDAFWWA [KCNA3] | 2 ± 0.16 | 2.12 ± 0.24 |  |  |
| CHFQALGCRTTHSNQEVLQSCLLV [PYCR3] | 2.8 ± 0.23 | 2.67 ± 0.54 |  |  |
| REEERPLPRRDFQRQVWLLFEYPE [KCNA3] | 2.64 ± 0.43 | 2.67 ± 0.37 |  |  |
| LVLPLVPELLSTHPFFDTAEPDMD [INTS4] | 2.56 ± 0.11 | 2.76 ± 0.68 |  |  |
| AANHWVLPAAEFHGLWDSLVYDVE [TRIP13] | 2.62 ± 0.31 | 2.66 ± 0.22 |  |  |
